Key:
[1] = BTK FAC plasma stability assay, rat plasma; type: in vitro ADME; details: for Plasma stability (h) rat: incubation to 24 h
Protocol: (§1) Plasma stability was conducted in Dulbecco's PBS buffer, mouse plasma, rat plasma or human plasma frozen with K3-EDTA from BiolVT). Thawed plasma was centrifuged prior to warming for 5 minutes at 37° C. Working solutions were prepared from 10 mM DMSO solution to 500 µM in acetonitrile:water (1:1); 2 µL of working solution was added to 198 µL blank plasma or PBS and mixed manually. 4×45 µL of spiked matrix was aliquoted into glass incubation plates (96-well DW glass microplate) and sealed with blue silicon/PTFE seal; then incubated on a Thermo shaker (38° C. 300 RPM). Samples were prepared at 0, 2, 6 and 24 h timepoints, by protein precipitation with chilled acetonitrile containing internal standard Glyburide (0.2 µM). Precipitated samples were shaken for 10 minutes and stored at 4° C. until completion of the study. Following precipitation of the terminal sample, samples were frozen at −80° C. for 1 hour. Samples were then thawed prior to centrifugation (20 minutes, 4500 RPM at 4° C.). 50 µL of supernatant of each sample was transferred to 384 well analysis plate containing 30 µL of water. Semi quantitative analysis (analyte: internal standard peak area ratio) was performed by LC-MS/MS using a Sciex QTrap 5500.

BTK C481S = biological target: T1, BTK C481S (Homo sapiens, UniProt Q06187, C481S); assay: PD screen in TMD8 BTK C481S mutant tumor-bearing mice, BTK levels and compound concentrations in blood and tumor; type: in vivo, mouse; details: i.v.; 25 umol/kg
T1 construct: endogenous in cells; host or cells: TMD8 BTK C481S mutant tumour xenografts in mice
Protocol: All animal studies were conducted in accordance with ethics and procedures covered by permit nos. BS-1975 issued by the Kantonales Veterinäramt Basel-Stadt and in strict adherence to guidelines of the Eidgenössisches Tierschutzgesetz and the Eidgenössische Tierschutzverordnung, Switzerland. All animals had access to food and water ad libitum and were identified with transponders. They were housed in a specific pathogen-free facility with a 12-h light/12-h dark cycle. For PD screen experiments in TMD8 BTK C481S mutant tumor-bearing mice, FAC was injected once. Animals were randomized into groups of 2 and tissue samples collected at day 0, 4, 7 and in some studies day 10 as well. Blood samples were collected and tumors were excised, weighed, frozen in liquid nitrogen and cryogenic dry pulverized with the CryoPrep™ system (model CP-02, Covaris). Concentrations of compounds in blood and tumors were determined by UPLC/MS-MS and BTK levels were analyzed by Meso Scale Discovery.

[2] = BTK FAC plasma stability assay, mouse plasma; type: in vitro ADME; details: for Plasma stability (h) mouse: incubation to 24 h
Protocol: as §1

[3] = BTK FAC plasma stability assay, PBS buffer arm; type: physicochemical; details: for Plasma stability (h) PBS: incubation to 24 h
Protocol: as §1

[4] = BTK FAC plasma stability assay, dog plasma; type: in vitro ADME
[5] = BTK FAC plasma stability assay, cyno plasma; type: in vitro ADME, cynomolgus monkey

T1 sequence (Q06187 whole entry C481S): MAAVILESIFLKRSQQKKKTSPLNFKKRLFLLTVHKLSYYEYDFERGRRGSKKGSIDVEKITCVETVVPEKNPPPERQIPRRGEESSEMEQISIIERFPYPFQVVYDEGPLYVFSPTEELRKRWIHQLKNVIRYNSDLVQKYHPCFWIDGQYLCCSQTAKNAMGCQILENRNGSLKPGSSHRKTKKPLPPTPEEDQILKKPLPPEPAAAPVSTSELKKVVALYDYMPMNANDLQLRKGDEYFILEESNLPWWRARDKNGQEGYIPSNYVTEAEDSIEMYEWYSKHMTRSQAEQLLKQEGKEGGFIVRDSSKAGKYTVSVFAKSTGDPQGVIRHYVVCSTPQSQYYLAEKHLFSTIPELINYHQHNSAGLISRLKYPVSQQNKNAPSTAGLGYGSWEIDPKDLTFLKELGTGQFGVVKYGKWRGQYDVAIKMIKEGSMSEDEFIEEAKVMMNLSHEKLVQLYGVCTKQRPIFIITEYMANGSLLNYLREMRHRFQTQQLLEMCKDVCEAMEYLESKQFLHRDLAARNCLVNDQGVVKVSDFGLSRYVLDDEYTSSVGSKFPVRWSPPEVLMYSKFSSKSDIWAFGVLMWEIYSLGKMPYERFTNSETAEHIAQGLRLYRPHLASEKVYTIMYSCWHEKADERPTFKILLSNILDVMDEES

| Compound | % Release of degrader after 24 h rat [1] [%] | Plasma stability (h) rat [1] [h] | Duration of BTK degradation in mouse ≥90% (BTK C481S) [days] | % Release of degrader after 24 h mouse [2] [%] | Plasma stability (h) mouse [2] [h] | % Release of degrader after 24 h PBS [3] [%] | Plasma stability (h) PBS [3] [h] | Plasma stability (h) dog [4] [h] | % Release of degrader after 24 h dog [4] [%] | Plasma stability (h) cyno [5] [h] | % Release of degrader after 24 h cyno [5] [%] |
| --- | --- | --- | --- | --- | --- | --- | --- | --- | --- | --- | --- |
| CCCCCCCCCCCN(C(=O)CCCCCCCCCC(=O)O)C(CCC(=O)NCCOCCOCCOCCOCCOCCOCCOCCOCCOCCOCCOCCOCCC(=O)N[C@@H](C)C(=O)OC(C)(C)c1ccc(C(=O)Nc2cc(F)cc(-c3ncnc4[nH]c(-c5ccc(CCN6CCC7(CC6)CCN(C(=O)c6ccc(OC)c(N8CCC(=O)NC8=O)c6)CC7)cc5)cc34)c2C)c(F)c1)C(=O)O (stereo partly drawn) [Example A16, (5S)-50-Carboxy-2-(4-((3-(6-(4-(2-(9-(3-(2,4-dioxotetrahydropyrimidin-1(2H)-yl)-4-methoxybenzoyl)-3,9-diazaspiro[5.5]undecan-3-yl)ethyl)phenyl)-7H-pyrrolo[2,3-d]pyrimidin-4-yl)-5-fluoro-2-methylphenyl)carbamoyl)-3-fluorophenyl)-2,5-dimethyl-4,7,47,52-tetraoxo-51-undecyl-3,10,13,16,19,22,25,28,31,34,37,40,43-tridecaoxa-6,46,51-triazadohexacontan-62-oic acid] | 11 | >48 | 4 | 1.9 | >48 | 2 | >48 | 31.2 | 5 |  |  |
| CCCCCCCCCCCN(C(=O)CCCCCCCCCC(=O)O)C(CCC(=O)NCCOCCOCCOCCOCCOCCOCCOCCOCCOCCOCCOCCOCCC(=O)NCC(=O)NCN(C(=O)c1ccc(C(C)(C)O)cc1F)c1cc(F)cc(-c2ncnc3[nH]c(-c4ccc(CCN5CCC6(CC5)CCN(C(=O)c5ccc(OC)c(N7CCC(=O)NC7=O)c5)CC6)cc4)cc23)c1C)C(=O)O (stereo not shown) [Example A36, 51-Carboxy-2-(3-(6-(4-(2-(9-(3-(2,4-dioxotetrahydropyrimidin-1(2H)-yl)-4-methoxybenzoyl)-3,9-diazaspiro[5.5]undecan-3-yl)ethyl)phenyl)-7H-pyrrolo[2,3-d]pyrimidin-4-yl)-5-fluoro-2-methylphenyl)-1-(2-fluoro-4-(2-hydroxypropan-2-yl)phenyl)-1,5,8,48,53-pentaoxo-52-undecyl-11,14,17,20,23,26,29,32,35,38,41,44-dodecaoxa-2,4,7,47,52-pentaazatrihexacontan-63-oic acid] | 0 | >48 | 10 | 0.7 | 38.6 | 0 | >48 | >48 | 0 |  |  |
| COCCOCCOCCOCCOCCOCCOCCOCCOCCOCCOCCOCCC(=O)NCC(=O)OC(C)(C)c1ccc(C(=O)Nc2cc(F)cc(-c3ncnc4[nH]c(-c5ccc(CCN6CCC7(CC6)CCN(C(=O)c6ccc(OC)c(N8CCC(=O)NC8=O)c6)CC7)cc5)cc34)c2C)c(F)c1 [Example A34, 2-(4-((3-(6-(4-(2-(9-(3-(2,4-Dioxotetrahydropyrimidin-1(2H)-yl)-4-methoxybenzoyl)-3,9-diazaspiro[5.5]undecan-3-yl)ethyl)phenyl)-7H-pyrrolo[2,3-d]pyrimidin-4-yl)-5-fluoro-2-methylphenyl)carbamoyl)-3-fluorophenyl)propan-2-yl (2,5,8,11,14,17,20,23,26,29,32,35-dodecaoxaoctatriacontan-38-oyl)glycinate] | 42.2 | 5.3 |  | 26.2 | 6.8 | 5.2 | >48 | >48 | 5.3 | 30.6 | 13.9 |
| CCCCCCCCCCCN(C(=O)CCCCCCCCCC(=O)O)C(CCC(=O)NCCOCCOCCOCCOCCOCCOCCOCCOCCOCCOCCOCCOCCC(=O)NCc1ccc(C(=O)OC(C)(C)c2ccc(C(=O)Nc3cc(F)cc(-c4ncnc5[nH]c(-c6ccc(CCN7CCC8(CC7)CCN(C(=O)c7ccc(OC)c(N9CCC(=O)NC9=O)c7)CC8)cc6)cc45)c3C)c(F)c2)cn1)C(=O)O (stereo not shown) [Example A25, 46-Carboxy-1-(5-(((2-(4-((3-(6-(4-(2-(9-(3-(2,4-dioxotetrahydropyrimidin-1(2H)-yl)-4-methoxybenzoyl)-3,9-diazaspiro[5.5]undecan-3-yl)ethyl)phenyl)-7H-pyrrolo[2,3-d]pyrimidin-4-yl)-5-fluoro-2-methylphenyl)carbamoyl)-3-fluorophenyl)propan-2-yl)oxy)carbonyl)pyridin-2-yl)-3,43,48-trioxo-47-undecyl-6,9,12,15,18,21,24,27,30,33,36,39-dodecaoxa-2,42,47-triazaoctapentacontan-58-oic acid] | 1.5 | 35.7 |  | 20.9 | 17.8 | 2.2 | >48 | >48 | 1.1 | >48 | 1.1 |
| CCCCCCCCCCCN(C(=O)CCCCCCCCCC(=O)O)C(CCC(=O)NCCOCCOCCOCCOCCOCCOCCOCCOCCOCCOCCOCCOCCC(=O)NCc1ccc(C(=O)OC(C)(C)c2ccc(C(=O)Nc3cc(F)cc(-c4ncnc5[nH]c(-c6ccc(CCN7CCC8(CC7)CCN(C(=O)c7ccc(OC)c(N9CCC(=O)NC9=O)c7)CC8)cc6)cc45)c3C)c(F)c2)cc1)C(=O)O (stereo not shown) [Example A14, 46-Carboxy-1-(4-(((2-(4-((3-(6-(4-(2-(9-(3-(2,4-dioxotetrahydropyrimidin-1(2H)-yl)-4-methoxybenzoyl)-3,9-diazaspiro[5.5]undecan-3-yl)ethyl)phenyl)-7H-pyrrolo[2,3-d]pyrimidin-4-yl)-5-fluoro-2-methylphenyl)carbamoyl)-3-fluorophenyl)propan-2-yl)oxy)carbonyl)phenyl)-3,43,48-trioxo-47-undecyl-6,9,12,15,18,21,24,27,30,33,36,39-dodecaoxa-2,42,47-triazaoctapentacontan-58-oic acid] | 0.3 | >48 |  | 9.5 | >48 | 0.2 | >48 | >48 | 0.1 | >48 | 0.2 |
| CCCCCCCCCCCN(C(=O)CCCCCCCCCC(=O)O)C(CCC(=O)NCCOCCOCCOCCOCCOCCOCCOCCOCCOCCOCCOCCOCCC(=O)N1CCN(CC(=O)OC(C)(C)c2ccc(C(=O)Nc3cc(F)cc(-c4ncnc5[nH]c(-c6ccc(CCN7CCC8(CC7)CCN(C(=O)c7ccc(OC)c(N9CCC(=O)NC9=O)c7)CC8)cc6)cc45)c3C)c(F)c2)CC1)C(=O)O (stereo not shown) [Example A22, 44-Carboxy-1-(4-(2-((2-(4-((3-(6-(4-(2-(9-(3-(2,4-dioxotetrahydropyrimidin-1(2H)-yl)-4-methoxybenzoyl)-3,9-diazaspiro[5.5]undecan-3-yl)ethyl)phenyl)-7H-pyrrolo[2,3-d]pyrimidin-4-yl)-5-fluoro-2-methylphenyl)carbamoyl)-3-fluorophenyl)propan-2-yl)oxy)-2-oxoethyl)piperazin-1-yl)-1,41,46-trioxo-45-undecyl-4,7,10,13,16,19,22,25,28,31,34,37-dodecaoxa-40,45-diazahexapentacontan-56-oic acid] | 1.4 | >48 |  | 2.3 | >48 | 1.3 | >48 | >48 | 1.6 | >48 | 1.2 |
